Target: T1, hRAR-γ binding to β-RARE (Homo sapiens, UniProt P13631)
T1 construct: fused to the amino terminal amino acid of full length hRAR-γ; 14 amino acids from the parental vector pEt3a (bacterially expressed preparation only) (N); made in house; host or cells: E. coli BL21 (DE3) plysS; also rVV-infected HeLa cells, rBV-infected Sf9 cells, yeast (ubiquitin fusion) and rabbit reticulocyte lysate
T1 sequence (P13631 1-454): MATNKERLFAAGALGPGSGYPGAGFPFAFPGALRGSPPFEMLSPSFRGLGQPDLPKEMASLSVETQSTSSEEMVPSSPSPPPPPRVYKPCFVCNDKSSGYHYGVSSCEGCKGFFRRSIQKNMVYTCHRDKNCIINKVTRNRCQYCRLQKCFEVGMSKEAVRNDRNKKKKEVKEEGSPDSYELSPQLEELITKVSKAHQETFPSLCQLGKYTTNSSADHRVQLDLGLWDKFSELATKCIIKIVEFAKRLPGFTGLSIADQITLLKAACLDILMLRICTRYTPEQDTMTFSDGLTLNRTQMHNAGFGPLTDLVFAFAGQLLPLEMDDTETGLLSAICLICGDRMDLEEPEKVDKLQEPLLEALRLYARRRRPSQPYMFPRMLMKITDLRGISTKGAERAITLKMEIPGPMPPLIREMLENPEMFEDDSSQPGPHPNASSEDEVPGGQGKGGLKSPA
T1 sequence (P28702 1-533 partner): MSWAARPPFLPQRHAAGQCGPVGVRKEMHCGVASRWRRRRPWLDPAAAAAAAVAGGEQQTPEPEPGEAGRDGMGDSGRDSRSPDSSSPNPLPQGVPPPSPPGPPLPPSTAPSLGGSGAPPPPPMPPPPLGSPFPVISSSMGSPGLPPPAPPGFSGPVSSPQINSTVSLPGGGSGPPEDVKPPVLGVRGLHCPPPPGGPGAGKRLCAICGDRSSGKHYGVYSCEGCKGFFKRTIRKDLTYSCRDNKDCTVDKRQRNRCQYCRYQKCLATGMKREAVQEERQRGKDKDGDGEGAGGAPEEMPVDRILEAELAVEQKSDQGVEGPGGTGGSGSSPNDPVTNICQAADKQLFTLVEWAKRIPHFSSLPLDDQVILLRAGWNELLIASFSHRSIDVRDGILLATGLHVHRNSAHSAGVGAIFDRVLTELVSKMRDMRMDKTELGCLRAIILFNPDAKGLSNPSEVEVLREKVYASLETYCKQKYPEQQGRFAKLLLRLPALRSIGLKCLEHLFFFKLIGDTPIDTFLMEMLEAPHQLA
Test: Gel retardation assay of RAR binding to β-RARE (RBF complementation)
Conditions: RBF activity, complementation gel retardation with bacterially-expressed hRAR-γ
Method: For gel retardation experiments comparing RAR and RXR subtypes and deletion mutants, all proteins were produced by in vitro translation in the presence of [^35S]methionine.
Purification of rVV- and rBV-expressed hRAR-γ is being described elsewhere (Chen et al., manuscript in preparation). […] All steps were carried out at 4° C. and RBF activity was monitored through all purification steps by a complementation gel retardation assay using bacterially-expressed hRAR-γ as described above. […] The column was washed with equilibration buffer until the A280 of the eluent returned to baseline. […] The column was washed with equilibration buffer until the A280 of the eluent returned to baseline and then with 4 column volumes of buffer A containing 0.45 M ammonium sulfate and 50 mM KCl. The column was then eluted with an 18 ml linear gradient from 0.45 to 0 M ammonium sulfate in buffer A containing 50 mM KCl.

B1: HAP-TSK: hydroxylapatite column-purified HeLa cell RBF, apparently homogeneous ~64 kDa polypeptide, predominantly hRXR-β (protein, UniProt P28702 1-533, looked up)
Retinoic acid receptor …: T1 sequence (P28702 1-533 partner)
For B1, which “Specific Activity” value is on record?
Its value is 7,750,000 cpm/μg.
